We go through 14 variants from paper PMC11369598.

First the molecules themselves.
B1: KLHL6 wild type, C-terminal Strep-HA tag (KLHL6-strHA) [human] / endogenous KLHL6 [human (endogenous in SuDHL5 and SuDHL4)] (parent)
chain 1: MLMAGQRGAWTMGDVVEKSLEGPLAPSTDEPSQKTGDLVEILNGEKVKFDDAGLSLILQNGLETLRMENALTDVILCVDIQEFSCHRVVLAAASNYFRAMFCNDLKEKYEKRIIIKGVDAETMHTLLDYTYTSKALITKQNVQRVLEAANLFQFLRMVDACASFLTEALNPENCVGILRLADTHSLDSLKKQVQSYIIQNFVQILNSEEFLDLPVDTLHHILKSDDLYVTEEAQVFETVMSWVRHKPSERLCLLPYVLENVRLPLLDPWYFVETVEADPLIRQCPEVFPLLQEARMYHLSGNEIISERTKPRMHEFQSEVFMIIGGCTKDERFVAEVTCLDPLRRSRLEVAKLPLTEHELESENKKWVEFACVTLKNEVYISGGKETQHDVWKYNSSINKWIQIEYLNIGRWRHKMVVLGGKVYVIGGFDGLQRINNVETYDPFHNCWSEAAPLLVHVSSFAATSHKKKLYVIGGGPNGKLATDKTQCYDPSTNKWSLKAAMPVEAKCINAVSFRDRIYVVGGAMRALYAYSPLEDSWCLVTQLSHERASCGIAPCNNRLYITGGRDEKNEVIATVLCWDPEAQKLTEECVLPRGVSHHGSVTIRKSYTHIRRIVPGAVSV
chain 2: B1 chain 1
B2: KLHL6 wild type, C-terminal Strep-HA tag (KLHL6-strHA) [human] / KLHL26 [human (endogenous in SuDHL5)] (parent)
chain 1: B1 chain 1
chain 2: MAESGGSSGGAGGGGAFGAGPGPERPNSTADKNGALKCTFSAPSHSTSLLQGLATLRAQGQLLDVVLTINREAFPAHKVVLAACSDYFRAMFTGGMREASQDVIELKGVSARGLRHIIDFAYSAEVTLDLDCVQDVLGAAVFLQMLPVVELCEEFLKAAMSVETCLNIGQMATTFSLASLRESVDAFTFRHFLQIAEEEDFLRLPLERLVFFLQSNRLQSCAEIDLFRAAVRWLQHDPARRPRASHVLCHIRFPLMQSSELVDSVQTLDIMVEDVLCRQYLLEAFNYQVLPFRQHEMQSPRTAVRSDVPSLVTFGGTPYTDSDRSVSSKVYQLPEPGARHFRELTEMEVGCSHTCVAVLDNFVYVAGGQHLQYRSGEGAVDACYRYDPHLNRWLRLQAMQESRIQFQLNVLCGMVYATGGRNRAGSLASVERYCPRRNEWGYACSLKRRTWGHAGAASGGRLYISGGYGISVEDKKALHCYDPVADQWEFKAPMSEPRVLHAMVGAGGRIYALGGRMDHVDRCFDVLAVEYYVPETDQWTSVSPMRAGQSEAGCCLLERKIYIVGGYNWRLNNVTGIVQVYNTDTDEWERDLHFPESFAGIACAPVLLPRAGTRR
B3: KLHL6 wild type, C-terminal Strep-HA tag (KLHL6-strHA) [human] / KLHL7 [human (endogenous in SuDHL5)] (parent)
chain 1: B1 chain 1
chain 2: MAASGVEKSSKKKTEKKLAAREEAKLLAGFMGVMNNMRKQKTLCDVILMVQERKIPAHRVVLAAASHFFNLMFTTNMLESKSFEVELKDAEPDIIEQLVEFAYTARISVNSNNVQSLLDAANQYQIEPVKKMCVDFLKEQVDASNCLGISVLAECLDCPELKATADDFIHQHFTEVYKTDEFLQLDVKRVTHLLNQDTLTVRAEDQVYDAAVRWLKYDEPNRQPFMVDILAKVRFPLISKNFLSKTVQAEPLIQDNPECLKMVISGMRYHLLSPEDREELVDGTRPRRKKHDYRIALFGGSQPQSCRYFNPKDYSWTDIRCPFEKRRDAACVFWDNVVYILGGSQLFPIKRMDCYNVVKDSWYSKLGPPTPRDSLAACAAEGKIYTSGGSEVGNSALYLFECYDTRTESWHTKPSMLTQRCSHGMVEANGLIYVCGGSLGNNVSGRVLNSCEVYDPATETWTELCPMIEARKNHGLVFVKDKIFAVGGQNGLGGLDNVEYYDIKLNEWKMVSPMPWKGVTVKCAAVGSIVYVLAGFQGVGRLGHILEYNTETDKWVANSKVRAFPVTSCLICVVDTCGANEETLET
B4: KLHL6 wild type fused to C-terminal BioID2 [human] / LuZP1 [human (endogenous in SuDHL5 and U2932)] (parent)
chain 1: B1 chain 1
chain 2: MAEFTSYKETASSRHLRFKLQSLSRRLDELEEATKNLQKAEDELLDLQDKVIQAEGSNSSMLAEIEVLRQRVLRIEGKDEEIKRAEDLCRLMKEKLEEEENLTRELKSEIERLQKRMAELEKLEEAFSRSKNDCTQLCLSLNEERNLTKKISSELEMLRVKVKELESSEDRLDKTEQSLASELEKLKSLTLSFVSERKYLNEKEKENEKLIKELTQKLEQNKKMNRDYTRNASNLERNDLRIEDGISSTLPSKESRRKGGLDYLKQVENETRNKSENEKNRNQEDNKVKDLNQEIEKLKTQIKHFESLEEELKKMKSKNNDLQDNYLSEQNKNKLLASQLEEIKLQIKKQKELENGEVEGEDAFLSSKGRHERTKFRGHGSEASVSKHTARELSPQHKRERLRNREFALNNENYSLSNRQVSSPSFTNRRAAKASHMGVSTDSGTQETKKTEDRFVPGSSQSEGKKSREQPSVLSRYPPAAQEHSKAWKGTSKPGTESGLKGKVEKTTRTFSDTTHGSVPSDPLGRADKASDTSSETVFGKRGHVLGNGSQVTQAANSGCSKAIGALASSRRSSSEGLSKGKKAANGLEADNSCPNSKAPVLSKYPYSCRSQENILQGFSTSHKEGVNQPAAVVMEDSSPHEALRCRVIKSSGREKPDSDDDLDIASLVTAKLVNTTITPEPEPKPQPNSREKAKTRGAPRTSLFENDKDAGMENESVKSVRASTNTMELPDTNGAGVKSQRPFSPREALRSRAIIKPVIVDKDVKKIMGGSGTETTLEKQKPVSKPGPNKVTSSITIYPSDSSSPRAAPGEALRERHTSTSNIQVGLAELTSVSNHVSSPFELSIHKHDITLQLAEAERMADGPLKDRPETVVSRSSIIIKPSDPVERNSHAPPAETIRWKSHSAPSEVGFSDARHVTVRNAWKSRRDLKSLEDPPTRIGKNVESTNSNAYTQRSSTDFSELEQPRSCLFEQGTRRVGPSSGDAPEPSSRRTQSSLTVSEVLTRRNRVGDTITVAAWNHSASMEEEGEDCTLSVYRQLHNSLDPSELPGKQGLPESGRVRAEERLRPTRPCAEEN
B5: KLHL6 wild type, C-terminal Strep-HA tag (KLHL6-strHA) [human] / adapter protein BANK1 [human (endogenous in SuDHL5 and U2932)] (parent)
chain 1: B1 chain 1
chain 2: MLPAAPGKGLGSPDPAPCGPAPPGNTKDIIMIYEEDAEEWALYLTEVFLHVVKREAILLYRLENFSFRHLELLNLTSYKCKLLILSNSLLRDLTPKKCQFLEKILHSPKSVVTLLCGVKSSDQLYELLNISQSRWEISTEQEPEDYISVIQSIIFKDSEDYFEVNIPTDLRAKHSGEISERKEIEELSEASRNTIPLAVVLPTEIPCENPGEIFIILRDEVIGDTVEVEFTSSNKRIRTRPALWNKKVWCMKALEFPAGSVHVNVYCDGIVKATTKIKYYPTAKAKECLFRMADSGESLCQNSIEELDGVLTSIFKHEIPYYEFQSLQTEICSQNKYTHFKELPTLLHCAAKFGLKNLAIHLLQCSGATWASKMKNMEGSDPAHIAERHGHKELKKIFEDFSIQEIDINNEQENDYEEDIASFSTYIPSTQNPAFHHESRKTYGQSADGAEANEMEGEGKQNGSGMETKHSPLEVGSESSEDQYDDLYVFIPGADPENNSQEPLMSSRPPLPPPRPVANAFQLERPHFTLPGTMVEGQMERSQNWGHPGVRQETGDEPKGEKEKKEEEKEQEEEEDPYTFAEIDDSEYDMILANLSIKKKTGSRSFIINRPPAPTPRPTSIPPKEETTPYIAQVFQQKTARRQSDDDKFCGLPKKQDRARIESPAFSTLRGCLTDGQEELILLQEKVKNGKMSMDEALEKFKHWQMGKSGLEMIQQEKLRQLRDCIIGKRPEEENVYNKLTIVHHPGGKETAHNENKFYNVHFSNKLPARPQVEKEFGFCCKKDH

One experiment covers variants of B1. Put plainly: AP-MS (spectral counts of the WT, leucine-65 peptide in the L65P bait pull-down). As to conditions: with endogenous KLHL6 [human (endogenous in SuDHL5 and SuDHL4)]; SuDHL5 cells; read off a plot.
chain 1 L65P: the response (spectral counts) was found to be 5.

Another experiment covers variants of B1. Put plainly: AP-MS (spectral counts of the WT, leucine-90 peptide in the L90F bait pull-down). As to conditions: with endogenous KLHL6 [human (endogenous in SuDHL5 and SuDHL4)]; SuDHL5 cells; read off a plot.
For chain 1 L90F, the response (spectral counts) was 1.

The variants in a further experiment derive from B2. Put plainly: AP-MS (Strep affinity purification, spectral counts). Conditions: with KLHL26 [human (endogenous in SuDHL5)]; SuDHL5 cells; read off a plot.
With chain 1 L65P, the response (spectral counts) was determined as 0.
Take chain 1 L90F: the response (spectral counts) came to 0.5.
On to chain 1 E568K, for which the response (spectral counts) turned out to be 15.

Variants of B2 are the subject of the next experiment. Put plainly: AP-MS (Strep affinity purification, mass spectrometry; DESeq2 model). As to conditions: with KLHL26 [human (endogenous in SuDHL5)]; SuDHL5 cells; WT eight replicates, L65P four replicates; read off a plot.
For the variant chain 1 L65P, the screen value was 4.4 log2.

The same experiment, now with this note: with KLHL26 [human (endogenous in SuDHL5)]; SuDHL5 cells; WT eight replicates, L90F eight replicates; read off a plot.
Consider chain 1 L90F, for which the screen value amounted to 2.7 log2.

Variants of B3 are the subject of a further experiment. Put plainly: AP-MS (Strep affinity purification, spectral counts). Conditions: with KLHL7 [human (endogenous in SuDHL5)]; SuDHL5 cells; read off a plot.
In the case of chain 1 L65P, the response (spectral counts) was 0.
Regarding chain 1 E568K, the response (spectral counts) is 20.
For the variant chain 1 L90F, the response (spectral counts) worked out at 0.

The variants in another experiment derive from B3. Put plainly: AP-MS (Strep affinity purification, mass spectrometry; DESeq2 model). Conditions: with KLHL7 [human (endogenous in SuDHL5)]; SuDHL5 cells; WT eight replicates, L65P four replicates; read off a plot.
Turning to chain 1 L65P, the screen value was found to be 4.9 log2.

Staying with this experiment, now noted: with KLHL7 [human (endogenous in SuDHL5)]; SuDHL5 cells; WT eight replicates, L90F eight replicates; read off a plot.
In the case of chain 1 L90F, the screen value turned out to be 4.9 log2.

Variants of B4 are the subject of the next experiment. Put plainly: BioID2 proximity labelling, mass spectrometry (spectral counts). As to conditions: with LuZP1 [human (endogenous in SuDHL5 and U2932)]; SuDHL5 cells; read off a plot.
On to chain 1 L65P, for which the response (spectral counts) was found to be 13.
Turning to chain 1 E568K, the response (spectral counts) was 1.5.
Turning to chain 1 E547K, the response (spectral counts) stood at 1.5.

The variants in the next experiment derive from B4. Put plainly: BioID2 proximity labelling, mass spectrometry. Conditions: with LuZP1 [human (endogenous in SuDHL5 and U2932)]; SuDHL5 cells; read off a plot.
As for chain 1 E568K, the screen value amounted to 2.4 log2.

The variants in another experiment derive from B5. Put plainly: AP-MS (Strep affinity purification, spectral counts). Conditions: with adapter protein BANK1 [human (endogenous in SuDHL5 and U2932)]; SuDHL5 cells; read off a plot.
Take chain 1 E568K: the response (spectral counts) stood at 2.
As for chain 1 L65P, the response (spectral counts) was found to be 0.5.
Same read-out and setting: with chain 1 L90F the figure was 7.5.
